Source: the supplement of paper PMC10126150
± gives the standard deviation of the averaged measurements.

System: ATP
Assay: switch fluorescence ratio, 500 uM ATP over buffer (Cy3 cluster intensity, sum of 5 cycles each) (fold (ratio)); higher = stronger signal-on switching upon ATP binding; sequences stand for … in TCGTCGGCAGCGTCAGATGTGTATAAGAGACAGTTTTTTTTTTTTTTTTTTTTTTTTT…TC
Settings: aptamer strand: ATP DNA aptamer (quencher-CACCTGGGGGAGTATTGCGGAGGAAGG + anchor), 100 nM annealed; ATP concentration: 500 uM
Outline: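 Per cluster, summed Cy3 intensity from the target cycles was divided by that from the buffer cycles to give the fluorescence ratio, then averaged per switch-domain sequence. Clusters outside 100-1000 RFU were excluded. The Cy3-labelled switching-strand clusters, on a modified Illumina MiSeq flow-cell, were annealed to 100 nM quencher-labelled ATP aptamer and imaged in selection buffer, then after 15 min with 500 uM ATP at 22 °C, for five cycles with NaOH stripping and re-annealing between them.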
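Also: ATP exposure 15 min at 22 °C before imaging.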

Row | Sequence | switch fluorescence ratio
1 | GAAATAAATA | 0.9835 ± 0.0081
2 | GAAATAATGG | 1.03 ± 0.041
3 | GAAATAGGG | 0.983 ± 0.011
4 | GAAATATGTG | 0.9885 ± 0.0022
5 | GAAATCATTA | 1.016 ± 0.01
6 | GAAATCCGAA | 1.08 ± 0.058
7 | GAAATCTTTT | 1.07 ± 0.17
8 | GAAATGAGAT | 0.975 ± 0.01
9 | GAAATGGGGT | 0.977 ± 0.037
10 | GAAATGGTAT | 1 ± 0.011
11 | GAAATTCGAG | 1.01 ± 0.033
12 | GAAATTTATA | 1.05 ± 0.04
13 | GAACAAGGAG | 1.03 ± 0.077
14 | GAACAAGGTG | 1.14 ± 0.22
15 | GAACATGGGC | 1.012 ± 0.0084
16 | GAACATTGGT | 0.998 ± 0.042
17 | GAACCGATGT | 1.009 ± 0.0089
18 | GAACCTTGAC | 1.61 ± 0.14
19 | GAACGAGAGG | 1.01 ± 0.012
20 | GAACGCGATT | 3.92 ± 1.3
21 | GAACGGAAGG | 1.014 ± 0.0043
22 | GAACGGGAAT | 1.022 ± 0.00076

Row | Sequence | switch fluorescence ratio
23 | GAACGGGGCG | 1.01 ± 0.099
24 | GAACGGGGGG | 0.9624 ± 0.0053
25 | GAACGGTATT | 1.06 ± 0.065
26 | GAACGTCGGA | 1.028 ± 0.0027
27 | GAACGTGGCA | 0.9956 ± 0.0095
28 | GAACTAGGTT | 0.9847 ± 0.0035
29 | GAACTATTTC | 1.036 ± 0.0019
30 | GAACTCGATG | 1.018 ± 0.0091
31 | GAACTTAGAG | 1.02 ± 0.03
32 | GAACTTGATG | 0.997 ± 0.036
33 | GAAGAAAGGT | 0.966 ± 0.064
34 | GAAGAAGGTG | 1.43 ± 0.018
35 | GAAGAAGTAA | 1.03 ± 0.013
36 | GAAGAATTAA | 1.0278 ± 0.00043
37 | GAAGAGGGGT | 1.01 ± 0.014
38 | GAAGAGGGTG | 1.03 ± 0.022
39 | GAAGATGCGG | 1.0002 ± 0.00028
40 | GAAGATTATA | 0.9865 ± 0.0044
41 | GAAGCCGGAA | 1.04 ± 0.021
42 | GAAGCGGGGC | 1.36 ± 0.064
43 | GAAGCGGGGG | 1.05 ± 0.02
44 | GAAGCTGCTT | 0.9908 ± 0.0073

Row | Sequence | switch fluorescence ratio
45 | GAAGCTTTAG | 1.06 ± 0.019
46 | GAAGGAGCAG | 0.944 ± 0.029
47 | GAAGGAGGGG | 1.06 ± 0.036
48 | GAAGGATTGT | 1.02 ± 0.059
49 | GAAGGCGGAT | 1.01 ± 0.018
50 | GAAGGCGGGA | 1.03 ± 0.097
51 | GAAGGGAGCG | 0.984 ± 0.045
52 | GAAGGGAGGT | 0.987 ± 0.012
53 | GAAGGGGCGA | 0.972 ± 0.018
54 | GAAGGGGGG | 1.001 ± 0.0094
55 | GAAGGGGGGT | 0.997 ± 0.029
56 | GAAGGGGGTT | 0.973 ± 0.036
57 | GAAGGGGTTA | 1.03 ± 0.087
58 | GAAGGGTACG | 1.07 ± 0.091
59 | GAAGGGTTAC | 1.15 ± 0.15
60 | GAAGGGTTGG | 0.999 ± 0.014
61 | GAAGGGTTTG | 0.9968 ± 0.0053
62 | GAAGGTATTT | 0.9517 ± 0.0056
63 | GAAGGTCAGT | 0.971 ± 0.051
64 | GAAGGTGGTG | 0.961 ± 0.032
65 | GAAGGTTCGT | 1 ± 0.034
66 | GAAGTAGGCG | 1.03 ± 0.028

Row | Sequence | switch fluorescence ratio
67 | GAAGTAGGTG | 1.02 ± 0.012
68 | GAAGTAGTTT | 0.98 ± 0.089
69 | GAAGTATGCA | 1.04 ± 0.031
70 | GAAGTATGGG | 0.956 ± 0.024
71 | GAAGTATGTG | 1.006 ± 0.0092
72 | GAAGTCCTGT | 0.998 ± 0.021
73 | GAAGTGAGCA | 1.01 ± 0.044
74 | GAAGTGCGGT | 0.98474 ± 0.00042
75 | GAAGTGGTTT | 0.997 ± 0.025
76 | GAAGTGTCGG | 1.005 ± 0.0057
77 | GAAGTTAGGT | 0.9981 ± 0.0087
78 | GAAGTTATTG | 0.9898 ± 0.0022
79 | GAAGTTCGAG | 0.998 ± 0.016
80 | GAAGTTGGGT | 1.01 ± 0.029
81 | GAATAAAATG | 1.04 ± 0.013
82 | GAATACCTTT | 1.02 ± 0.013
83 | GAATAGGGTG | 1.08 ± 0.039
84 | GAATATAGTG | 1.02 ± 0.011
85 | GAATATAGTT | 0.9947 ± 0.0078
